Assay results published in patent publication US20230049152A1 (Genentech, published 2023).

Target: T1, D19A
T1 construct: single alanine mutant of hCCR8; also called hCCR8 D19A
T1 receptor chain: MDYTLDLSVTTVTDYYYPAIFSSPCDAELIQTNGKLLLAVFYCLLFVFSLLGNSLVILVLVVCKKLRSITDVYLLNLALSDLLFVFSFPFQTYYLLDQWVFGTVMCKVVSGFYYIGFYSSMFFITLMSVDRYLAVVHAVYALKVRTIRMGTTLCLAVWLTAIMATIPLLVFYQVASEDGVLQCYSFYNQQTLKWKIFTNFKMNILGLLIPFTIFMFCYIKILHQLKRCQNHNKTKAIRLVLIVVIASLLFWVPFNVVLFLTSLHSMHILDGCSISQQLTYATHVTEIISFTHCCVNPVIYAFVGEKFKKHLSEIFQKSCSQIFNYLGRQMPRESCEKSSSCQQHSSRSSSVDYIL
Experiment: flow cytometry, HEK293 transfected with hCCR8 D19A with C-terminal FLAG; sheet prints [huCCR8]=0.02 ug/ml
Experimental: FIGS. 16A-16B depict the epitope maps for hu.Ab5.H13L1 (FIG. 16A) and hu.Ab4.H12L3 (FIG. 16B) mAbs.
To epitope map fucosylated hu.Ab5.H13L1, the binding to alanine point mutations in human CCR8 was analyzed by flow cytometry.

B1: hu.Ab5.H13L1 (antibody, human IgG1, kappa)
heavy: not shown
light: DIQVTQSPSSLSASVGDRVTITCQASENIANALAWYQQKPGKPPKFLIYGASNLASGVPSRFSGSGSGTDFTFTISSLQPEDIATYYCQQAYYGNSFVEGTFGGGTKVEIKRTVAAPSVFIFPPSDEQLKSGTASVVCLLNNFYPREAKVQWKVDNALQSGNSQESVTEQDSKDSTYSLSSTLTLSKADYEKHKVYACEVTHQGLSSPVTKSFNRGEC
notes: fucosylated human IgG1; also called Ab5 variant
- binding result: binds
